Positions count from the first letter of the chain named. One block for each binder: values may come before it.
Biological target: gp120
Assay: ELISA; geometric mean over gp120 from 7 HIV strains

B1: PGT121.42 (antibody, V domains shown)
VH: QMQLQESGPGLVKPSETLSLTCSVSGASISDSYWSWIRRSPGKGLEWIGYVHKSGDTNYNPSLKSRVHLSLDTSKNQVSLSLSSVTAADSGKYYCARTLHGRRIYGIVAFNEWFTYFYMDVWGKGTQVTVSS
VL: SDISVAPGETARISCGEKSLGSRAVQWYQHRAGQAPSLIIYNNQDRPSGIPERFSGSPDSPFGTTATLTITSVEAGDEADYYCHIWDSRVPTKWVFGGGTTLTVLG
EC50: 1.57 nM

B2: PGT121.65 (antibody, V domains shown)
VH: B1 VH with M2L, S32A, S83T, S84G, T98A, K124T
VL: B1 VL with P61R, F62P, T101K
EC50: 2.14 nM

Now from value to binder:

EC50: 1.65 nM
B3: PGT121.61 (antibody)
heavy: QMQLQESGPGLVKPSETLSLTCSVSGASISDSYWSWIRRSPGKGLEWIGYVHKSGDTNYNPSLKSRVHLSLDTSKNQVSLSLTGVTAADSGKYYCARTLHGRRIYGIVAFNEWFTYFYMDVWGTGTQVTVSSASTKGPSVFPLAPSSKSTSGGTAALGCLVKDYFPEPVTVSWNSGALTSGVHTFPAVLQSSGLYSLSSVVTVPSSSLGTQTYICNVNHKPSNTKVDKKVEPKSCDKTHTCPPCPAPELLAGPDVFLFPPKPKDTLMISRTPEVTCVVVDVSHEDPEVKFNWYVDGVEVHNAKTKPREEQYNSTYRVVSVLTVLHQDWLNGKEYKCKVSNKALPLPEEKTISKAKGQPREPQVYTLPPSREEMTKNQVSLTCLVKGFYPSDIAVEWESNGQPENNYKTTPPVLDSDGSFFLYSKLTVDKSRWQQGNVFSCSVLHEALHSHYTQKSLSLSPGK
light: SDISVAPGETARISCGEKSLGSRAVQWYQHRAGQAPSLIIYNNQDRPSGIPERFSGSPDSRPGTTATLTITSVEAGDEADYYCHIWDSRVPTKWVFGGGTKLTVLGQPKAAPSVTLFPPSSEELQANKATLVCLISDFYPGAVTVAWKADSSPVKAGVETTTPSKQSNNKYAASSYLSLTPEQWKSHRSYSCQVTHEGSTVEKTVAPTECS

EC50: 1.79 nM
B4: PGT121.60 (antibody)
heavy: B3 heavy
light: not shown
